Reference: patent US20250145729A1 (DENALI THERAPEUTICS, published 2025)
Substitutions are numbered along the chain they refer to. Numbers in names are those of the source.

B1: LLB1-3-16-2 (Fc fusion)
chain: APELLGGPSVFLFPPKPKDTLMISRTPEVTCVVVDVSHEDPEVKFNWYVDGVEVHNAKTKPREEQYNSTYRVVSVLTVLHQDWLNGKEYKCKVSNKALPAPIEKTISKAKGQPREPQVYTLPPSRDELTKNQVSLTCLVKGFYPSDIAVEWRTYKPYETNYKTTPPVLDSDGSFFLYSKLTVDKSRWQQGDIFVCDVMHEALHNHFTIKKLSLSPGK
B2: LLB1-3-25-2 (Fc fusion)
chain: B1 chain
notes: a difference, if any, lies outside the printed positions
B3: LLB1-3-25-1 (Fc fusion)
chain: B1 chain with M198L
notes: as for B2
B4: LLB1-3-14-1 (Fc fusion)
chain: B1 chain with T153S, T159N, M198L, F206Y
B5: LLB1-3-4-1 (Fc fusion)
chain: B1 chain with T159N, D191N, F206Y
B6: LLB1-3-16 (Fc fusion)
chain: B1 chain with M198L
notes: also called Clone 1-3-16; LLB1-1-3-16
B7: LLB1-3 D380E (Fc fusion)
chain: B1 chain with T153S, T159N, D191N, F206Y
B8: LLB1-3-31-2 (Fc fusion)
chain: B1 chain with K210S
B9: LLB1-3-10-1 (Fc fusion)
chain: B1 chain with T153S, T159N, D191N, M198L, F206Y
B10: 42.2.3.1H mono (Fc fusion)
chain 1: APEAAGGPSVFLFPPKPKDTLMISRTPEVTCVVVDVSHEDPEVKFNWYVDGVEVHNAKTKPREEQYNSTYRVVSVLTVLHQDWLNGKEYKCKVSNKALGAPIEKTISKAKGQPREPQVYTLPPSRDELTKNQVSLWCLVKGFYPSDIAVEWFYGNAKETNYKTTPPVLDSDGSFFLYSKLTVDKSRWQQGNLFACEVMHEALHNHYTYKLLSLSPGK
chain 2: APEAAGGPSVFLFPPKPKDTLMISRTPEVTCVVVDVSHEDPEVKFNWYVDGVEVHNAKTKPREEQYNSTYRVVSVLTVLHQDWLNGKEYKCKVSNKALGAPIEKTISKAKGQPREPQVYTLPPSRDELTKNQVSLSCAVKGFYPSDIAVEWESNGQPENNYKTTPPVLDSDGSFFLVSKLTVDKSRWQQGNVFSCSVMHEALHNHYTQKSLSLSPGK
notes: knob+P329G+LALA with TfR site, hole+P329G+LALA without
B11: 42.2.5.2 mono (Fc fusion)
chain 1: B10 chain 1 with Y153S, G154D, N155G, A156S, Q189P, G190R, N191G, S212G, L213E
chain 2: B10 chain 2
notes: as for B10
B12: 42.2.3.4 mono (Fc fusion)
chain 1: B10 chain 1 with Y153A, N155G, A156G
chain 2: B10 chain 2
notes: as for B10
B13: 42.2.19 mono (Fc fusion)
chain 1: B10 chain 1 with G154D, N155D, A156S, E158L, Q189P, G190R, N191G, S212G, L213E
chain 2: B10 chain 2
notes: as for B10
B14: 42.2.5.4 mono (Fc fusion)
chain 1: B10 chain 1 with Y153S, G154D, N155G, A156S, G190Q, N191G, S212G, L213Y
chain 2: B10 chain 2
notes: as for B10
B15: 42.2.3.5 mono (Fc fusion)
chain 1: B10 chain 1 with A156G
chain 2: B10 chain 2
notes: as for B10
B16: 42.2.7.2 mono (Fc fusion)
chain 1: B10 chain 1 with Y153S, G154D, N155G, A156S, H203E, N204G
chain 2: B10 chain 2
notes: M428 kept here
B17: 42.2.3.3 mono (Fc fusion)
chain 1: B10 chain 1 with Y153T, G154D, A156Y
chain 2: B10 chain 2
notes: as for B10
B18: Clone 33: LLB2-10-8-d6 bivalent, non-binding Fabs (Fc fusion)
chain: APELLGGPSVFLFPPKPKDTLMISRTPEVTCVVVDVSHEDPEVKFNWYVDGVEVHNAKTKPREEQYNSTYRVVSVLTVLHQDWLNGKEYKCKVSNKALPAPIEKTISKAKGQPREPQVYTLPPSRDELTKNQVSLTCLVKGFYPSDIAVLWNSRFVLENNYKTTPPVLDSDGSFFLYSKLTVDKSRWQQGNVFACNVYHEALHNHYTFKNLALSPGK
notes: bivalent; effector positive
B19: Clone 38: LLB2-10-8-d6 bivalent, non-binding Fabs, effector negative (Fc fusion)
chain: B18 chain with L4A, L5A, P99G
B20: Clone 36: LLB2-10-8 bivalent, non-binding Fabs, effector negative (Fc fusion)
chain: B18 chain with L4A, L5A, P99G, N191E, V192I

Assays:
human CD98hc [1] = biological target: T1, human CD98hc (human, UniProt P08195 109-529); experiment: SPR (Biacore); format not stated
T1 construct: The construct used on the Biacore is not described; also called CD98 heavy chain; 4F2 heavy chain
T1 sequence: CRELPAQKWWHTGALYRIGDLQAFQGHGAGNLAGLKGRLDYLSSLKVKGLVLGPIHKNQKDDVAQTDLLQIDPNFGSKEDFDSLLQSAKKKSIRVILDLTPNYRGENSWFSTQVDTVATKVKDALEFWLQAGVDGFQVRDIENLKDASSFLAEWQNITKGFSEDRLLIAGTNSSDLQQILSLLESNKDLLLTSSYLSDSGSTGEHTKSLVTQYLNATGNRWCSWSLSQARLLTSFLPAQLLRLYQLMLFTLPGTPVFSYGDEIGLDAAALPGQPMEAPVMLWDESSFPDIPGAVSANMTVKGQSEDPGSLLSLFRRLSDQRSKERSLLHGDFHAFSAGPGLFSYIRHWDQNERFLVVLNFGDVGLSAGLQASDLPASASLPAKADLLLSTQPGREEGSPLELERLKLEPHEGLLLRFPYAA
Procedure: A second round of affinity maturation using phage display was performed to increase the affinity of the LLB1 family to CD98hc (Table 11). The backbone of the library was the clone LLB1-3. Library LLB1-AM3 expands the library positions from the original clone using NHK or ARY. Library LLB1-AM4 expands the libraries and includes a mixture of residues that were found previously at those positions in the LLB1 family. The library was assembled using Kunkel mutagenesis and screened to human CD98hc. […] The format was anti-BACE1 Fabs having full effector function and in a bivalent format (i.e., no knob and hole mutations). Cell binding of the clones was also tested in HeLa cells for huCD98hc binding, CHO:cyCD98hc cells for cyno binding, and CHO cells as a negative control.

[2] = biological target: T2, circularly permuted human TfR apical domain (human); experiment: method not named for this table (Biacore elsewhere)
T2 construct: TfR residues 326-379 stand N-terminal to 194-296, loop 297-325 deleted; also called huTfR Apical Domain
T2 chain: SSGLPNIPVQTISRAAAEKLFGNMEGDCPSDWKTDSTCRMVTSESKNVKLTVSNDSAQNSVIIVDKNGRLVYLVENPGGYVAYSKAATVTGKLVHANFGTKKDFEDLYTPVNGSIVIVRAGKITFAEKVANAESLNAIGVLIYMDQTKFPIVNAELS

[3] = biological target: T3, circularly permuted cyno TfR apical domain (cynomolgus monkey); experiment: as above
T3 construct: same design as the human construct; also called cyTfR Apical Domain; cynomolgus TfR apical domain
T3 chain: T2 chain with R39K, S45N, N47S, R69G, Y108D, T109S, N153K, E155D

human CD98hc [4] = biological target: T4, human CD98hc (human, UniProt P08195 109-529); experiment: affinity as listed in study design table; method not given there
T4 construct: also called huCD98hc; CD98 heavy chain
T4 sequence: T1 sequence

| Binder | Kd (human CD98hc [1]) [nM] | Kd [2] [nM] | Kd [3] [nM] | Kd (human CD98hc [4]) [nM] |
| --- | --- | --- | --- | --- |
| B1 | 175 | – | – | – |
| B2 | 160 | – | – | – |
| B3 | 42 | – | – | – |
| B4 | 330 | – | – | – |
| B5 | 880 | – | – | – |
| B6 | 32 | – | – | – |
| B7 | 1000 | – | – | – |
| B8 | 1200 | – | – | – |
| B9 | 470 | – | – | – |
| B10 | – | 220 | 2000 | – |
| B11 | – | 180 | 2000 | – |
| B12 | – | 181 | 4000 | – |
| B13 | – | 79 | 1100 | – |
| B14 | – | 400 | 6500 | – |
| B15 | – | 260 | 1800 | – |
| B16 | – | 162 | 10000 | – |
| B17 | – | 360 | 8000 | – |
| B18 | – | – | – | 550 |
| B19 | – | – | – | 550 |
| B20 | – | – | – | 100 to 200 |
